The values that follow come from PMC3154279, “ADP-Ribosylation Factor 6 Mediates E-Cadherin Recovery by Chemical Chaperones” (PLoS ONE, 2011).

Holding throughout (experiment): proximity ligation; Duolink PLA on methanol-fixed CHO cells stably expressing WT or mutant hE-cadherin, treated with medium or 2% DMSO for 24 h; antibody pairs against E-cadherin and PIP5K1C, p120 or β-catenin; spots per cell counted (BlobFinder), relative number of blobs per cell, n = 3
Test [1] concerns the target Type Iγ phosphatidylinositol phosphate kinase (PIPKIγ) (Chinese hamster (endogenous in CHO)).
Test [2] addresses p120-catenin (Chinese hamster (endogenous in CHO)).
Another test concerns the target T1, β-catenin (Chinese hamster (endogenous in CHO), UniProt G3H996 1-781).
T1 construct: β-catenin, endogenous in CHO (Chinese hamster ovary) cells, detected with an anti-β-catenin antibody; source: endogenous, CHO cells, fixed
T1 sequence (looked up): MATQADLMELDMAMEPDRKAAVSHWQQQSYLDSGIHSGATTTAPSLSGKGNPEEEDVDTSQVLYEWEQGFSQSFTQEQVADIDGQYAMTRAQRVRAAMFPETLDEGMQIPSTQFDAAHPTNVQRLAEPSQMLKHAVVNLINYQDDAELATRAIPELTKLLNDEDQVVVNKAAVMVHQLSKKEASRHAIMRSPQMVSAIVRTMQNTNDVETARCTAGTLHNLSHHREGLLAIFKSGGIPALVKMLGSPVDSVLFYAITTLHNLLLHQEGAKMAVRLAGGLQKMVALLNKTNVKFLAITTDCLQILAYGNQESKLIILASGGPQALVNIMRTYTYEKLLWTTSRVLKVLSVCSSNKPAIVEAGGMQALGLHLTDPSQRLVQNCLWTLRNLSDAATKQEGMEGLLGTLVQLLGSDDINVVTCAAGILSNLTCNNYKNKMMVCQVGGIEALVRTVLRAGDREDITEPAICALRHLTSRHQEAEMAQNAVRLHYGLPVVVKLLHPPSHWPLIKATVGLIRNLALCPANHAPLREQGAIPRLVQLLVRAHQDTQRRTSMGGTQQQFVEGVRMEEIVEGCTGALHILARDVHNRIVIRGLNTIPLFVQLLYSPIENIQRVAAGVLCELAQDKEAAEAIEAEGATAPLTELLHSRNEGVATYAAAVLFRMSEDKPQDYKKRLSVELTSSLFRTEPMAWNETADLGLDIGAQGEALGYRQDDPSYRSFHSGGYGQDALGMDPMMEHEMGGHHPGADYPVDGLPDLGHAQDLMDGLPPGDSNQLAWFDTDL
As to conditions: partners not purified.

B1: WT human E-cadherin (natural protein, UniProt P12830 155-882, looked up)
chain: DWVIPPISCPENEKGPFPKNLVQIKSNKDKEGKVFYSITGQGADTPPVGVFIIERETGWLKVTEPLDRERIATYTLFSHAVSSNGNAVEDPMEILITVTDQNDNKPEFTQEVFKGSVMEGALPGTSVMEVTATDADDDVNTYNAAIAYTILSQDPELPDKNMFTINRNTGVISVVTTGLDRESFPTYTLVVQAADLQGEGLSTTATAVITVTDTNDNPPIFNPTTYKGQVPENEANVVITTLKVTDADAPNTPAWEAVYTILNDDGGQFVVTTNPVNNDGILKTAKGLDFEAKQQYILHVAVTNVVPFEVSLTTSTATVTVDVLDVNEAPIFVPPEKRVEVSEDFGVGQEITSYTAQEPDTFMEQKITYRIWRDTANWLEINPDTGAISTRAELDREDFEHVKNSTYTALIIATDNGSPVATGTGTLLLILSDVNDNAPIPEPRTIFFCERNPKPQVINIIDADLPPNTSPFTAELTHGASANWTIQYNDPTQESIILKPKMALEVGDYKINLKLMDNQNKDQVTTLEVSVCDCEGAAGVCRKAQPVEAGLQIPAILGILGGILALLILILLLLLFLRRRAVVKEPLLPPEDDTRDNVYYYDEEGGGEEDQDFDLSQLHRGLDARPEVTRNDVAPTLMSVPRYLPRPANPDEIGNFIDENLKAADTDPTAPPYDSLLVFDYEGSGSEAASLSSLNSSESDKDQDYDYLNEWGNRFKKLADMYGGGEDD
notes: E-cadherin, human, wild type, expressed from a transduced vector in CHO cells; also called WT hE-cad; WT hEcadherin; source: CHO cells (ATCC CCL-61), stably transduced, in fixed cells
For B1, the values for the fold increase of PLA blobs per cell with 2% DMSO against untreated WT (in test [1]; in test [2]; in the test with β-catenin) were 2.3 fold, 4.2 fold and 1.8 fold, respectively.
